Measurements reported in patent publication US20230322906A1.

B1: 4591-2 (antibody, V domains shown)
VH: QVQLQQWGAGLLKPSETLSLTCDVSGGSFSDFYWSWVRQSPGKGLEWIGDINHSGSSNYIPSLDGRVTISVDTSRSQFSLNLTSVTAADTAIYFCARKVWPFNGMDVWSQGTTVTVSS
VL: ATQLTQSPSFLSASVGDRVTITCRASQGIRNFLAWYQQKPGKAPNLLIYAASTLQSGVPSRFAGSGSGTEFTLTINNVQPEDFATYYCQQLTNYATFGQGTKLEIQ
B2: 6420-48.2 (antibody, V domains shown)
VH: EVQLVESGGGLVRPGGSLRLSCAASGFTFNTYEMNWVRQAPGKGLEWLSYISSTGNNIFYADSVKGRFTISRDNAKNSLYLQMNNVRTDDTALYYCARGGQLWFGERLNFQHWGQGTQVTVSS
VL: DIQMTQSPSSLSASVGDRVTITCRASQTISNNLNWYQQKPGKAPKFLIYSVSVLQSGVPSRFSGSGSGTDFTLTITSLQPEDFATYYCQQSHSTPLTFGQGTRLEIK
B3: 6420-48.1 (antibody, V domains shown)
VH: EVQLVESGGGLVQPGGSLRLSCAASGFTFNTYEMNWVRQAPGKGLEWVSYISGTGNNIYYADSVKGRFTISRDNAKNSLYLQMDNLRAEDTAVYYCARGGQLWFGERLYFHFWGQGTLVAVSS
VL: DIQMSQSPSSLSASVGDRVTITCRASQSIGNNLNWYQQKPGKAPNLLIYAASNLQSGVPSRFSGSGSGTDFSLTISSLQPEDFTIYYCQQSFSTPITFGQGTRLEIK
B4: 4513-11 (antibody, V domains shown)
VH: QVQLAQSGAEVKKPGSSVKVSCHVSGGTFSTYAINWVRQAPGHGPEWMGRITPISGATDYAQKFQARITISADESTSAAYLEVRTLRSDDTAVYYCARVGQPKFFERSSDGEHFQHWGQGTLVTVSS
VL: DIQMTQSPSTLSASVGDRTTITCRASQNIDKWLAWYQQKPGKAPTVLIFKASTLESGVPSRFSGSSSGTEFTLTIDNLQPEDSATYFCHQYSRYPWTFGQGTKVELK
B5: 4513-12 (antibody, V domains shown)
VH: QLQLQESGPGLVKPSETLALTCSVSGGSIFSSNYYWAWIRQPPGKGLEWMGSVYFSGTTFYNPSLKSRVIVSVDTAKNQFSLKLNSVSAADTAIYYCARDVRMRSGRPRQYCMDVWGKGTTVTVSS
VL: EVVLTQSPGTLSLSPGERATLSCRASQSVNSIYLAWYQQKPGQAPRLLIYGASNRAAGIPDRFSGSGSGTDFTLTIDRLEPEDFAVYYCQQYDTSPAVTFGPGTKVEIK
B6: 4513-14 (antibody, V domains shown)
VH: QVQLVQSGREVKKFGSSVRVSCKASGGSFDTYAISWVRQAPGQGLEWMGQITPMFGTSHMSQRFQGRLTIDTDDSTGTVFMDMRGLRTEDSATYYCAKDWSFDDDGGAYVPSAMDVWGQGTTVIVSS
VL: EIVLTQSPGTLSVSPGERATLSCKASQSISSSSLAWYRQTPGQTPTLLIYGTSTRATGIPDRFSGRGSGTDFTLTITNVKPEDFAVYYCQQYGSSPFTFGPGTRLDFR
B7: 4487-4 (antibody, V domains shown)
V domain 1: QVQLVQSGTELTKPGMSVKISCRASGTTFTRPYVHWVRQAPGQGLEWMGMINPTGVNVFSAQKFQGRVTMTRQTSTHTSFLELVSLTGDDTAVYYCATSSGVVSLRSAFDIWGQGTILIVSS
V domain 2: QSALSQPASVSGSLGQSITISCSGVGSDAVTYTVVSWYQQHPTKAPKIIISDGDKRPSGVSSRFSGSKSGNTAFLRISGLQTDDEALYYCCSYVGSNTWVFGGGTTVTVL
B8: 4487-5 (antibody, V domains shown)
VH: QMQLVQSGPEVRKPGSSVKVSCKASGGTFDNSAITWVRQAPGQGLEWMGGIIPFVGAAAYAQRFLGRATITADASTTSSYLELRGLTSDDTGVYFCARDGLRLNFYYYGMDVWGQGTPIIVSS
VL: QIVLTQSPGTLSLSPGDTATLSCRASQRVTHTHLAWYQQKPGQPPRLLIYATSQRATGIPDRFRGSGSGRDFTLTIASLEPEDFAVYYCQQNGESPRMFGQGTKLDVK
B9: 6420-35 (antibody, V domains shown)
VH: EVQLVESGGDLVQPGGSLRLSCLGSGFDFRTYGMNWVRQAPGKGLEWVSYISSTSSAIYYTDSIEGRFTISRDNGKNLLSLQMSSLRDEDTAVYYCARGGSLWFGREFHAMDVWGRGTTVTVSS
VL: QAVVTQEPSLTVSPGGTVTLTCGSSTGAVTSDHYPYWFQQKPGQAPRTLIYDTINRHSWAPARFSASLLGGKAALTLSGAQPEDEAEYYCLLSYSGARRVFGGGTKLTVL
B10: 6420-233.1 (antibody, V domains shown)
VH: EVQLVESGGALVQPGGSLRLSCAASGFNFISYGMNWVRQAPGKGLEWISYISSASNTIYYADSVKGRFTISRDNAKNSLYLQMTSLRDGDSALYYCARDIVTIFFRGRSQHAFSVWGQGTAVAVSS
VL: SYVLTQPPSVSVAPGQTARITCGGNNIGSKNVHWYQQKPGQAPVLVVYDNSDRPSGVPERFSGSNSGNTATLTITRVEAGDEADYYCQVWDISSDHQVFGGGTKLTAL
B11: 6420-233.2 (antibody, V domains shown)
VH: EVQLVESGGGLVQPGGSLRLSCAASGFDFRTYSMNWVRQAPGKGLEWLSYISSTSATIYSADSVKGRFTISRDNAKNSVYLQMNSLRVDDTAVYFCARERITVFFRGRSQHASNVWGQGTMVTVSS
VL: SYVLTQAPSVSVAPGQTARITCGGDNIGNKNAHWYQQKPGQAPVLVVYDNSDRPSGIPERFSGSNSGNTATLTISRVEAGDEADYFCQVWDSSSDHQVFGGGTKLTVL

How the values were obtained:
[1] = molecular target: BG505.SOSIP CD4bs variants (BG505.SOSIP.D368R, BG505.SOSIP.N279K, BG505.SOSIP.D368R/N279K (DKO)); experiment: ELISA AUC normalized to BG505.SOSIP.backbone
[2] = molecular target: trimeric Env protein (HIV-1 Env gp140 trimer antigens of the panel: ZM197, CNE55, CZA97); experiment: ELISA (AUC) on HIV-1 Env gp140 trimer and gp120 monomer panel

| Binder | fold decrease in binding against BG505.SOSIP Env [1] | binding to trimeric Env protein relative to monomeric Env protein [2] |
| --- | --- | --- |
| B1 | > 2 fold | – |
| B2 | > 2 fold | – |
| B3 | > 2 fold | – |
| B4 | – | > 3 times |
| B5 | – | > 3 times |
| B6 | – | > 3 times |
| B7 | – | > 3 times |
| B8 | – | > 3 times |
| B9 | > 2 fold | – |
| B10 | > 2 fold | – |
| B11 | > 2 fold | – |
